From patent US20150344540A1, “NOVEL GLP-1 RECEPTOR AGONISTS WITH CHOLESTEROL EFFLUX ACTIVITY” (NOVO NORDISK A/S, priority 2012, published 2015)
Where no end group is shown, it is not given here. [ ]: non-standard residue; d: D form. Aib = CC(C)(N)C(=O)O

B1: [Aib8,Glu23,Val25,Aib36,Lys37]-des-Lys34-GLP-1-(7-37)-peptidyl-Glu-Phe-Leu amide (peptide)
peptide: H[Aib]EGTFTSDVSSYLEGEAVKEFIAWLVG[Aib]KEFL-NH2
modifications: N-terminus assumed
SMILES: CC[C@H](C)[C@H](NC(=O)[C@H](Cc1ccccc1)NC(=O)[C@H](CCC(=O)O)NC(=O)[C@H](CCCCN)NC(=O)[C@@H](NC(=O)[C@H](C)NC(=O)[C@H](CCC(=O)O)NC(=O)CNC(=O)[C@H](CCC(=O)O)NC(=O)[C@H](CC(C)C)NC(=O)[C@H](Cc1ccc(O)cc1)NC(=O)[C@H](CO)NC(=O)[C@H](CO)NC(=O)[C@@H](NC(=O)[C@H](CC(=O)O)NC(=O)[C@H](CO)NC(=O)[C@@H](NC(=O)[C@H](Cc1ccccc1)NC(=O)[C@@H](NC(=O)CNC(=O)[C@H](CCC(=O)O)NC(=O)C(C)(C)NC(=O)[C@@H](N)Cc1c[nH]cn1)[C@@H](C)O)[C@@H](C)O)C(C)C)C(C)C)C(=O)N[C@@H](C)C(=O)N[C@@H](Cc1c[nH]c2ccccc12)C(=O)N[C@@H](CC(C)C)C(=O)N[C@H](C(=O)NCC(=O)NC(C)(C)C(=O)N[C@@H](CCCCN)C(=O)N[C@@H](CCC(=O)O)C(=O)N[C@@H](Cc1ccccc1)C(=O)N[C@@H](CC(C)C)C(N)=O)C(C)C
B2: [Gly8,Glu22,Glu23,Val25,Glu34,Lys35,Val36,Lys37]-GLP-1-(7-37)-peptidyl-Glu-Phe-Leu amide (peptide)
peptide: HGEGTFTSDVSSYLEEEAVKEFIAWLVEKVKEFL-NH2
B3: [Glu22,Glu23,Val25,Glu34,Lys35,Val36,Lys37]-GLP-1-(7-37)-peptidyl-Glu-Phe-Leu amide (peptide)
peptide: HAEGTFTSDVSSYLEEEAVKEFIAWLVEKVKEFL-NH2
B4: [Aib8,Glu22,Glu23,Val25,Glu34,Lys35,Val36,Lys37]-GLP-1-(7-37)-peptidyl-Glu-Phe amide (peptide)
peptide: H[Aib]EGTFTSDVSSYLEEEAVKEFIAWLVEKVKEF-NH2
B5: [Gly8,Glu22,Glu23,Val25,Glu34,Lys35,Val36,Lys37]-GLP-1-(7-37)-peptidyl-Glu-Phe amide (peptide)
peptide: HGEGTFTSDVSSYLEEEAVKEFIAWLVEKVKEF-NH2
B6: [Glu34,Lys35,Val36,His37]-GLP-1-(7-37)-peptidyl-Glu-Phe-Leu amide (peptide)
peptide: HAEGTFTSDVSSYLEGQAAKEFIAWLVEKVHEFL-NH2
B7: [Aib8,Glu23,Val25,Glu34,Lys35,Aib36,Lys37]-GLP-1-(7-37)-peptide amide (peptide)
peptide: H[Aib]EGTFTSDVSSYLEGEAVKEFIAWLVEK[Aib]K-NH2
modifications: N-terminus assumed
SMILES: CC[C@H](C)[C@H](NC(=O)[C@H](Cc1ccccc1)NC(=O)[C@H](CCC(=O)O)NC(=O)[C@H](CCCCN)NC(=O)[C@@H](NC(=O)[C@H](C)NC(=O)[C@H](CCC(=O)O)NC(=O)CNC(=O)[C@H](CCC(=O)O)NC(=O)[C@H](CC(C)C)NC(=O)[C@H](Cc1ccc(O)cc1)NC(=O)[C@H](CO)NC(=O)[C@H](CO)NC(=O)[C@@H](NC(=O)[C@H](CC(=O)O)NC(=O)[C@H](CO)NC(=O)[C@@H](NC(=O)[C@H](Cc1ccccc1)NC(=O)[C@@H](NC(=O)CNC(=O)[C@H](CCC(=O)O)NC(=O)C(C)(C)NC(=O)[C@@H](N)Cc1c[nH]cn1)[C@@H](C)O)[C@@H](C)O)C(C)C)C(C)C)C(=O)N[C@@H](C)C(=O)N[C@@H](Cc1c[nH]c2ccccc12)C(=O)N[C@@H](CC(C)C)C(=O)N[C@H](C(=O)N[C@@H](CCC(=O)O)C(=O)N[C@@H](CCCCN)C(=O)NC(C)(C)C(=O)N[C@@H](CCCCN)C(N)=O)C(C)C
B8: [Glu34,Val36,Lys37]-GLP-1-(7-37)-peptidyl-Glu-Phe-Leu-Glu-Lys (peptide)
peptide: HAEGTFTSDVSSYLEGQAAKEFIAWLVEGVKEFLEK
B9: [Glu34,Lys35,Val36,Lys37]-GLP-1-(7-37)-peptidyl-Glu-Phe-Leu-Glu-Arg (peptide)
peptide: HAEGTFTSDVSSYLEGQAAKEFIAWLVEKVKEFLER
B10: [Glu34,Lys35,Val36,Lys37]-GLP-1-(7-37)-peptidyl-Glu-Phe-Leu-Asp-Lys (peptide)
peptide: HAEGTFTSDVSSYLEGQAAKEFIAWLVEKVKEFLDK
B11: [Aib8,Glu22,Glu23,Val25,Glu34,Lys35,Val36,Lys37]-GLP-1-(7-37)-peptidyl-Glu-Phe-Leu amide (peptide)
peptide: H[Aib]EGTFTSDVSSYLEEEAVKEFIAWLVEKVKEFL-NH2
modifications: N-terminus assumed
SMILES: CC[C@H](C)[C@H](NC(=O)[C@H](Cc1ccccc1)NC(=O)[C@H](CCC(=O)O)NC(=O)[C@H](CCCCN)NC(=O)[C@@H](NC(=O)[C@H](C)NC(=O)[C@H](CCC(=O)O)NC(=O)[C@H](CCC(=O)O)NC(=O)[C@H](CCC(=O)O)NC(=O)[C@H](CC(C)C)NC(=O)[C@H](Cc1ccc(O)cc1)NC(=O)[C@H](CO)NC(=O)[C@H](CO)NC(=O)[C@@H](NC(=O)[C@H](CC(=O)O)NC(=O)[C@H](CO)NC(=O)[C@@H](NC(=O)[C@H](Cc1ccccc1)NC(=O)[C@@H](NC(=O)CNC(=O)[C@H](CCC(=O)O)NC(=O)C(C)(C)NC(=O)[C@@H](N)Cc1c[nH]cn1)[C@@H](C)O)[C@@H](C)O)C(C)C)C(C)C)C(=O)N[C@@H](C)C(=O)N[C@@H](Cc1c[nH]c2ccccc12)C(=O)N[C@@H](CC(C)C)C(=O)N[C@H](C(=O)N[C@@H](CCC(=O)O)C(=O)N[C@@H](CCCCN)C(=O)N[C@H](C(=O)N[C@@H](CCCCN)C(=O)N[C@@H](CCC(=O)O)C(=O)N[C@@H](Cc1ccccc1)C(=O)N[C@@H](CC(C)C)C(N)=O)C(C)C)C(C)C
B12: [Glu22,Glu23,Val25,Glu34,Lys35,Val36,Lys37]-GLP-1-(7-37)-peptidyl-Glu-Phe amide (peptide)
peptide: HAEGTFTSDVSSYLEEEAVKEFIAWLVEKVKEF-NH2
B13: [Glu23,Val25,Arg26,His34,Arg35,Val36,Arg37]-GLP-1-(7-37)-peptidyl-Glu-Phe-Leu-Glu-Lys (peptide)
peptide: HAEGTFTSDVSSYLEGEAVREFIAWLVHRVREFLEK
B14: [Glu34,Lys35,Val36]-GLP-1-(7-37)-peptidyl-Glu-Phe-Leu-Glu-Lys (peptide)
peptide: H-HAEGTFTSDVSSYLEGQAAKEFIAWLVEKVGEFLEK
B15: [Glu34,Lys35,Val36,Lys37]-GLP-1-(7-37)-peptidyl-Glu-Phe-Tyr amide (peptide)
peptide: HAEGTFTSDVSSYLEGQAAKEFIAWLVEKVKEFY-NH2
B16: [Glu34,His35,Val36,Lys37]-GLP-1-(7-37)-peptidyl-Glu-Phe-Leu amide (peptide)
peptide: HAEGTFTSDVSSYLEGQAAKEFIAWLVEHVKEFL-NH2

Molecular target: human GLP-1 receptor (human, UniProt P43220)
Experiment: cell-based or functional assay

| Binder | CRE luciferase EC50, 0% HSA | CRE luciferase EC50, 1% HSA |
| --- | --- | --- |
| B1 | 10 pM | 4 pM |
| B2 | 974 pM | 302 pM |
| B3 | 299 pM | 114 pM |
| B4 | 29 pM | 12 pM |
| B5 | 104 pM | 27 pM |
| B6 | 107 pM | 30 pM |
| B7 | 15 pM | 4 pM |
| B8 | 85 pM | 23 pM |
| B9 | 34 pM | 11 pM |
| B10 | 45 pM | 12 pM |
| B11 | 116 pM | 34 pM |
| B12 | 20 pM | 10 pM |
| B13 | 39 pM | 14 pM |
| B14 | 41 pM | 13 pM |
| B15 | 37 pM | 14 pM |
| B16 | 103 pM | 24 pM |
